Results: the supplement of paper PMC9876800

System: peptide library, one residue held at a place counted from the S/T acceptor
Assay: relative phosphorylation of the sub-library (ratio to the mean residue at this position); higher = residue favoured
Details: human
Outline: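 Purified recombinant kinases were reacted in 384-well plates with biotinylated degenerate peptide sub-libraries, each having one residue fixed at one position around a central Ser/Thr. The reaction mix contained 50 μM peptide plus 50 μM ATP spiked with γ-32P-ATP and ran for 90 min under kinase-specific conditions. Relative sub-library phosphorylation, taken from densitometry of phosphorimaged streptavidin membrane spots, is a ratio to the mean residue at that position.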

Sequence of TLK1, construct: Full length (Q9UKI8 whole entry, looked up): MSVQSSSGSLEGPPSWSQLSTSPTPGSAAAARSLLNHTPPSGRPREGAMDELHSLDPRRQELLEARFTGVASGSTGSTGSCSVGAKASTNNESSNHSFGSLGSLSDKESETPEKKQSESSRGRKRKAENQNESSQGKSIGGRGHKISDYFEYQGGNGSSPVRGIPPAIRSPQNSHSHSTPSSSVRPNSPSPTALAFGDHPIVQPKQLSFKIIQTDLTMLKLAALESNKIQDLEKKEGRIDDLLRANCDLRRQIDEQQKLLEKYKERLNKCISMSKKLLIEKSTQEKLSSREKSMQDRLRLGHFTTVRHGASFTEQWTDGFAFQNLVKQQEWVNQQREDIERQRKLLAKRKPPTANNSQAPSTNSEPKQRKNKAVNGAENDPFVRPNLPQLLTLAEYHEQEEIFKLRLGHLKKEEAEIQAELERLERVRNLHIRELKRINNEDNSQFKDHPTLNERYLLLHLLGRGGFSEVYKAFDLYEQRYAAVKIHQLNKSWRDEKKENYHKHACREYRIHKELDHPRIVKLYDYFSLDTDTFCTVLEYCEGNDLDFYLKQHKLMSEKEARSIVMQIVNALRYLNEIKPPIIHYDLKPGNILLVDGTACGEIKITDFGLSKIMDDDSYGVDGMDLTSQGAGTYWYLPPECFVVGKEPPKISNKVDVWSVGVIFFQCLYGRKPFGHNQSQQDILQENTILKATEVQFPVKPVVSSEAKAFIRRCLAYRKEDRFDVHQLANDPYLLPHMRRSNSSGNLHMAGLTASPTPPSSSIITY
Sequence of CDK3, construct: Full length (Q00526 whole entry, looked up): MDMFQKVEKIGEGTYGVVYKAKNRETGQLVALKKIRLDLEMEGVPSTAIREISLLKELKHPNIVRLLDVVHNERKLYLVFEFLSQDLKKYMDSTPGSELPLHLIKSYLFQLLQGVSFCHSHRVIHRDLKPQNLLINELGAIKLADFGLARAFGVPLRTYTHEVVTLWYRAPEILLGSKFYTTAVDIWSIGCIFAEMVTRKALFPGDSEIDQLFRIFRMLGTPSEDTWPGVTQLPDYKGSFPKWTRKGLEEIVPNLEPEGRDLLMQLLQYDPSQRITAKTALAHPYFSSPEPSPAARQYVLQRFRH
Sequence of CDK13, construct: aa694-1039 (Q14004 694-1039, looked up): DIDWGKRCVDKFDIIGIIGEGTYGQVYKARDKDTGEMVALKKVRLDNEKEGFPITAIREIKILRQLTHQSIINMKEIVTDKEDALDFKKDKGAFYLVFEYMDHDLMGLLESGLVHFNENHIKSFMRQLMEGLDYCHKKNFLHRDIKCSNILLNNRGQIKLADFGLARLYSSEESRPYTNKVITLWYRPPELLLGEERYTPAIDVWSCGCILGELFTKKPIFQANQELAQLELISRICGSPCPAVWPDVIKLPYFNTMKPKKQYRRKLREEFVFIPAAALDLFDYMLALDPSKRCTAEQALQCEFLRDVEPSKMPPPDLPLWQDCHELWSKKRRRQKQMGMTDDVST
Sequence of DYRK1B, construct: Full length (Q9Y463 whole entry, looked up): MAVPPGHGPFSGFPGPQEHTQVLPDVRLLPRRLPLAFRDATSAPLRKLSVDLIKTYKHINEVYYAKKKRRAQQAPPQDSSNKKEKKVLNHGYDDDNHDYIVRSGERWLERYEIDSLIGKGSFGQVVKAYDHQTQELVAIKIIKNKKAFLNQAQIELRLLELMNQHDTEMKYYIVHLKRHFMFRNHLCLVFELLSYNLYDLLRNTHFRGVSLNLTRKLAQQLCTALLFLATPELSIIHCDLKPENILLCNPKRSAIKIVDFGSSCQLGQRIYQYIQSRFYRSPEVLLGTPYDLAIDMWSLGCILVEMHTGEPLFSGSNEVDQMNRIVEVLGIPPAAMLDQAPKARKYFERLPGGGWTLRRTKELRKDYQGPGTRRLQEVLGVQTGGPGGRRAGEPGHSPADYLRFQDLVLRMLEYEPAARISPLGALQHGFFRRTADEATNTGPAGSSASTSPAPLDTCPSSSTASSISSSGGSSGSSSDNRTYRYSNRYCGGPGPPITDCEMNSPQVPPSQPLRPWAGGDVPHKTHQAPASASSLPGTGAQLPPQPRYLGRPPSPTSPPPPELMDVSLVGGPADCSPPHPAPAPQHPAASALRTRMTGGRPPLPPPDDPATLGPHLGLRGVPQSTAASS

DYRK1B, construct: Full length (from UniProt Q9Y463)
relative phosphorylation
Details | at +1 | at +2 | at +3 | at +4 | at -1 | at -2 | at -3 | at -4 | at -5
A fixed | 0.436 | 0.893 | 0.7 | 0.79 | 1.08 | 2.23 | 0.812 | 0.901 | 0.902
D fixed | 0.147 | 0.891 | 0.762 | 0.879 | 0.607 | 0.261 | 0.56 | 1.58 | 0.658
E fixed | 0.161 | 0.8 | 0.932 | 0.829 | 0.626 | 0.28 | 0.445 | 0.719 | 0.554
F fixed | 0.182 | 1.26 | 1.04 | 1.68 | 0.605 | 0.346 | 0.407 | 0.645 | 0.816
G fixed | 0.957 | 0.824 | 1 | 0.925 | 1.14 | 0.889 | 1.33 | 0.933 | 1.15
H fixed | 0.249 | 1.16 | 1.37 | 1.11 | 0.926 | 0.456 | 0.748 | 0.837 | 1.23
I fixed | 0.239 | 1.26 | 0.987 | 1.14 | 0.495 | 0.727 | 0.32 | 0.607 | 0.956
K fixed | 0.469 | 0.653 | 0.621 | 0.808 | 1.6 | 0.623 | 0.983 | 1.22 | 1.5
L fixed | 0.222 | 1.28 | 1.25 | 1.1 | 0.747 | 0.926 | 0.491 | 0.756 | 0.785
M fixed | 0.71 | 1.06 | 1.22 | 1.32 | 1.04 | 0.729 | 0.513 | 0.718 | 0.721
N fixed | 0.21 | 1.02 | 0.991 | 0.902 | 0.86 | 0.806 | 0.712 | 0.806 | 0.903
P fixed | 11 | 0.972 | 2.32 | 0.904 | 1.66 | 2.48 | 1.04 | 1.01 | 0.988
Q fixed | 0.265 | 0.893 | 0.88 | 0.9 | 1.12 | 0.584 | 0.73 | 0.824 | 0.851
R fixed | 0.947 | 0.77 | 0.713 | 0.811 | 1.93 | 3.56 | 5.96 | 3.05 | 2.61
V fixed | 0.448 | 1.24 | 0.706 | 0.854 | 0.672 | 0.944 | 0.373 | 0.544 | 0.599
W fixed | 0.241 | 1.02 | 0.742 | 1.06 | 0.853 | 0.723 | 0.539 | 0.865 | 0.8
Y fixed | 0.161 | 1.01 | 0.77 | 0.994 | 1.02 | 0.43 | 1.03 | 0.987 | 0.983
pThr fixed | 0.476 | 1.01 | 0.551 | 0.927 | 0.454 | 0.594 | 0.577 | 0.891 | 0.802
pTyr fixed | 0.537 | 0.813 | 0.705 | 0.961 | 0.76 | 0.433 | 0.559 | 0.672 | 0.849

CDK3, construct: Full length (from UniProt Q00526)
relative phosphorylation
Details | at +1 | at +2 | at +3 | at +4 | at -1 | at -2 | at -3 | at -4 | at -5
A fixed | 0.28 | 1.2 | 0.418 | 1.14 | 1.12 | 1.17 | 1.14 | 1.23 | 1.11
D fixed | 0.17 | 0.658 | 0.277 | 0.882 | 0.844 | 0.837 | 0.997 | 1.07 | 1.31
E fixed | 0.172 | 0.626 | 0.25 | 0.783 | 0.718 | 0.938 | 0.839 | 1.29 | 1.06
F fixed | 0.14 | 0.857 | 0.261 | 0.778 | 0.703 | 0.855 | 0.746 | 0.8 | 0.944
G fixed | 0.912 | 0.851 | 0.612 | 1.43 | 1.72 | 1.28 | 1.83 | 1.49 | 1.37
H fixed | 0.177 | 1.06 | 0.699 | 1.06 | 0.778 | 0.981 | 0.984 | 0.966 | 0.993
I fixed | 0.156 | 0.775 | 0.261 | 0.697 | 0.343 | 0.691 | 0.618 | 0.589 | 0.656
K fixed | 0.214 | 2 | 9.66 | 1.99 | 1.58 | 0.753 | 0.978 | 1.1 | 1.06
L fixed | 0.156 | 0.891 | 0.266 | 0.736 | 0.741 | 0.957 | 0.777 | 0.709 | 0.629
M fixed | 0.167 | 0.98 | 0.284 | 0.962 | 0.969 | 0.889 | 0.766 | 0.957 | 0.695
N fixed | 0.193 | 1.05 | 0.405 | 0.988 | 1.1 | 0.909 | 1.06 | 0.938 | 0.887
P fixed | 13.3 | 0.682 | 0.644 | 1.04 | 1.87 | 2.78 | 2.04 | 1.54 | 1.51
Q fixed | 0.212 | 1.29 | 0.401 | 0.933 | 1.17 | 0.825 | 0.943 | 0.836 | 0.915
R fixed | 0.2 | 1.9 | 1.69 | 1.1 | 1.48 | 0.835 | 1 | 1.01 | 1.12
V fixed | 0.216 | 0.851 | 0.302 | 0.682 | 0.453 | 0.688 | 0.654 | 0.602 | 0.832
W fixed | 0.155 | 0.653 | 0.277 | 1.05 | 0.613 | 0.867 | 0.807 | 0.969 | 1.01
Y fixed | 0.142 | 0.664 | 0.288 | 0.741 | 0.793 | 0.744 | 0.814 | 0.891 | 0.895
pThr fixed | 0.523 | 0.933 | 0.86 | 0.685 | 0.434 | 0.731 | 0.886 | 1 | 1.24
pTyr fixed | 0.633 | 0.538 | 0.927 | 0.718 | 0.48 | 0.698 | 0.853 | 0.982 | 0.947

CDK13, construct: aa694-1039 (from UniProt Q14004)
relative phosphorylation
Details | at +1 | at +2 | at +3 | at +4 | at -1 | at -2 | at -3 | at -4 | at -5
A fixed | 0.344 | 0.946 | 0.818 | 0.867 | 1.13 | 1.18 | 1.03 | 1.07 | 1.13
D fixed | 0.22 | 0.631 | 0.449 | 1.07 | 0.485 | 0.477 | 0.742 | 0.927 | 0.951
E fixed | 0.222 | 0.569 | 0.42 | 0.973 | 0.492 | 0.515 | 0.76 | 0.983 | 0.817
F fixed | 0.319 | 1.03 | 0.579 | 0.816 | 0.876 | 0.712 | 0.85 | 1.17 | 1.23
G fixed | 0.908 | 1.27 | 0.797 | 1.33 | 1.45 | 1.77 | 2.11 | 1.16 | 0.982
H fixed | 0.301 | 1.17 | 1.71 | 1.44 | 0.893 | 0.831 | 0.889 | 1.02 | 1.1
I fixed | 0.293 | 0.835 | 0.822 | 0.746 | 0.382 | 0.933 | 0.995 | 0.868 | 0.933
K fixed | 0.307 | 1.31 | 0.993 | 0.893 | 1.12 | 0.542 | 0.581 | 0.846 | 0.837
L fixed | 0.348 | 0.845 | 0.558 | 0.743 | 0.845 | 1.03 | 0.922 | 0.953 | 0.923
M fixed | 0.336 | 1.11 | 0.506 | 0.824 | 1.64 | 1.31 | 0.965 | 1.01 | 0.855
N fixed | 0.305 | 1.02 | 0.739 | 1.01 | 0.968 | 0.685 | 0.696 | 0.889 | 0.784
P fixed | 11.6 | 0.82 | 1.41 | 0.98 | 1.02 | 1.71 | 1.44 | 1.15 | 1.17
Q fixed | 0.287 | 0.8 | 0.764 | 0.903 | 1.18 | 0.736 | 0.672 | 0.753 | 0.933
R fixed | 0.315 | 1.7 | 4.1 | 0.956 | 1.68 | 1.16 | 1.2 | 0.861 | 0.898
V fixed | 0.315 | 0.812 | 0.717 | 0.779 | 0.511 | 0.942 | 0.877 | 0.825 | 0.929
W fixed | 0.306 | 0.937 | 0.82 | 1.59 | 1.23 | 1.43 | 1.07 | 1.4 | 1.24
Y fixed | 0.306 | 1.2 | 0.801 | 1.09 | 1.09 | 1.03 | 1.2 | 1.11 | 1.27
pThr fixed | 0.386 | 0.581 | 0.553 | 1.13 | 0.349 | 0.479 | 0.922 | 0.831 | 1.02
pTyr fixed | 0.405 | 0.576 | 0.702 | 1.27 | 1.16 | 0.698 | 0.88 | 0.961 | 0.865

TLK1, construct: Full length (from UniProt Q9UKI8)
relative phosphorylation
Details | at +1 | at +2 | at +3 | at +4 | at -1 | at -2 | at -3 | at -4 | at -5
A fixed | 0.502 | 0.943 | 1.34 | 0.901 | 1.02 | 1.28 | 1.23 | 0.986 | 0.846
D fixed | 0.279 | 1.17 | 0.745 | 0.602 | 2.36 | 3.12 | 2.28 | 1.26 | 0.993
E fixed | 0.353 | 0.499 | 0.939 | 0.52 | 1.98 | 3.77 | 1.44 | 1.01 | 0.812
F fixed | 0.586 | 1.4 | 1.32 | 1.77 | 0.517 | 0.384 | 0.887 | 1.51 | 1.46
G fixed | 0.296 | 0.832 | 1.13 | 0.978 | 0.518 | 0.875 | 0.741 | 0.765 | 0.693
H fixed | 0.917 | 1.63 | 1.06 | 0.957 | 1.08 | 0.843 | 1.14 | 1.12 | 0.909
I fixed | 1.06 | 0.658 | 0.707 | 0.968 | 0.717 | 0.384 | 0.688 | 1.24 | 1.06
K fixed | 0.848 | 0.636 | 0.646 | 0.891 | 1.02 | 0.512 | 0.856 | 0.757 | 0.952
L fixed | 1.49 | 1.02 | 0.72 | 1.02 | 0.887 | 0.371 | 0.679 | 0.984 | 0.936
M fixed | 2.43 | 1.6 | 0.993 | 0.964 | 0.751 | 0.588 | 0.907 | 0.896 | 0.826
N fixed | 1.66 | 0.582 | 0.636 | 0.674 | 1.44 | 1.35 | 1.09 | 0.598 | 0.609
P fixed | 0.217 | 0.821 | 1.29 | 1.38 | 0.364 | 0.484 | 0.856 | 0.554 | 0.897
Q fixed | 2.14 | 0.964 | 0.808 | 0.722 | 0.808 | 1.11 | 0.775 | 0.871 | 0.697
R fixed | 1.98 | 0.664 | 0.848 | 0.815 | 1.27 | 0.504 | 1.01 | 0.795 | 1.32
V fixed | 0.996 | 0.569 | 0.809 | 0.81 | 0.789 | 0.497 | 0.659 | 1.21 | 1.16
W fixed | 0.669 | 2.09 | 1.6 | 1.77 | 0.633 | 0.46 | 0.836 | 1.26 | 1.43
Y fixed | 0.577 | 0.931 | 1.41 | 1.26 | 0.831 | 0.47 | 0.932 | 1.2 | 1.41
pThr fixed | 0.472 | 0.804 | 0.79 | 0.807 | 0.694 | 1.76 | 1.85 | 1.18 | 0.601
pTyr fixed | 0.518 | 1.39 | 1.48 | 1.08 | 1.61 | 2.32 | 1.4 | 1.55 | 1.68
